Test system: peptide library, one residue held at a place counted from the S/T acceptor
Experiment: relative phosphorylation of the sub-library (ratio to the mean residue at this position); higher = residue favoured
Settings: human
Method in brief: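 Each biotinylated degenerate peptide sub-library fixed one residue at one position around a central Ser/Thr and was incubated with a purified recombinant kinase, a human or orthologue construct, in 384-well plates. The 90 min reactions, under kinase-specific conditions, contained 50 μM peptide and 50 μM ATP spiked with γ-32P-ATP. Phosphorylation was read by phosphorimaging spots on streptavidin membranes and quantifying them by densitometry. Relative sub-library phosphorylation expresses each value as a ratio to the mean residue at that position.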

Chain of MAPKAPK2, construct: Full length (P49137 whole entry, looked up): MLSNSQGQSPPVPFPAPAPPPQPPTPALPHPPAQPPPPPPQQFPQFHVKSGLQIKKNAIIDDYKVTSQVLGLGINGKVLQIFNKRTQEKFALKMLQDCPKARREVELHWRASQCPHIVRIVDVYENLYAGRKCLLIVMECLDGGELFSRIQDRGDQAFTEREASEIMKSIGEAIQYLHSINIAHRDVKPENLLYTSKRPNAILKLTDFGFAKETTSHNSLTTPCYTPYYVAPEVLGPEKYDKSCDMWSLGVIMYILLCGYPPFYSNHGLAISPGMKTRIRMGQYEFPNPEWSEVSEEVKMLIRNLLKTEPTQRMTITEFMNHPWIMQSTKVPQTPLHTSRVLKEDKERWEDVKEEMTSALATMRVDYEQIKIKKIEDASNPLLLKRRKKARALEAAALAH
Chain of MAP4K4, construct: aa1-328 (O95819 1-328, looked up): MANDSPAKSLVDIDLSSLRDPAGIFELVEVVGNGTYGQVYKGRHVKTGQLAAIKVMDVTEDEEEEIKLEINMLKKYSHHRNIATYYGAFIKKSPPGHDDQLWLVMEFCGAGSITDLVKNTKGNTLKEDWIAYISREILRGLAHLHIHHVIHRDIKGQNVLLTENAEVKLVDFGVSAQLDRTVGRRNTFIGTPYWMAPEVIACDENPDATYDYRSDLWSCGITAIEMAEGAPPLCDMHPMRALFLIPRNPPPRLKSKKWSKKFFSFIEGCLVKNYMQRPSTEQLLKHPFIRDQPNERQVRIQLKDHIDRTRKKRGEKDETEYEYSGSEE
Chain of MAP3K8, construct: aa30-397 (P41279 30-397, looked up): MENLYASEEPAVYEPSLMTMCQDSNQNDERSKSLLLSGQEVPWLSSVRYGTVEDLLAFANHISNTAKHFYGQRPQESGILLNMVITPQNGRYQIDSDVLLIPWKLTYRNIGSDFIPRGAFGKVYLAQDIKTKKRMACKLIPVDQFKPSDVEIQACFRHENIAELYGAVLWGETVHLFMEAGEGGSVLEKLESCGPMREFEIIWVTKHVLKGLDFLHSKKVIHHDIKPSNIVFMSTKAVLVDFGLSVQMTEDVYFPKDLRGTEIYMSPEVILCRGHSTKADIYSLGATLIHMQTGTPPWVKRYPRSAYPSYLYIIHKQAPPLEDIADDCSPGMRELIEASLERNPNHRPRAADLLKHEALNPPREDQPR

MAP3K8, construct: aa30-397 (from UniProt P41279)
relative phosphorylation
Settings	at +1	at +2	at +3	at +4	at -1	at -2	at -3	at -4	at -5
A fixed	0.997	0.962	0.971	1.12	0.924	0.801	0.815	1.17	1.27
D fixed	0.537	0.83	0.819	1.27	1.65	2	1.57	1.62	1.47
E fixed	0.66	1.12	0.961	1.44	1.2	1.5	1.62	1.51	1.27
F fixed	1.1	0.338	0.599	0.523	0.449	0.976	0.535	0.489	0.575
G fixed	1.23	0.736	1.2	1.09	1.31	1.23	1.36	1.51	1.41
H fixed	0.869	1.17	0.465	0.83	1.16	1.18	1.16	1.16	1.33
I fixed	0.847	0.952	0.832	0.655	0.336	0.554	0.382	0.479	0.435
K fixed	1.31	1.61	1.57	1.4	1.37	0.653	1.08	1.11	1.47
L fixed	0.9	0.938	1.22	0.771	0.746	0.816	0.59	0.55	0.576
M fixed	1.29	0.697	1.09	0.877	0.572	0.789	0.595	0.676	0.499
N fixed	0.996	1.67	1.03	0.997	1.5	1.35	1.32	1.35	1.25
P fixed	0.299	0.499	0.522	1.72	1.11	0.927	1.52	1.32	1.31
Q fixed	1.36	1.9	1.21	1.09	1.28	0.913	1.16	1.01	0.943
R fixed	1.31	1.5	1.73	1.02	1.41	0.717	1.15	1.05	1.08
V fixed	1.07	1.25	0.992	0.809	0.601	0.519	0.446	0.536	0.694
W fixed	0.806	0.382	0.78	0.689	0.591	0.805	0.835	0.707	0.834
Y fixed	1.41	0.438	1.01	0.688	0.782	1.28	0.856	0.761	0.575
pThr fixed	1.64	1.48	0.934	1.43	1.44	1.43	1.5	1.4	1.1
pTyr fixed	0.716	1.83	1.08	1.17	1.51	0.871	1.49	0.882	1.1

MAP4K4, construct: aa1-328 (from UniProt O95819)
relative phosphorylation
Settings	at +1	at +2	at +3	at +4	at -1	at -2	at -3	at -4	at -5
A fixed	0.704	0.925	0.833	1.06	1.11	1.09	1.06	1.03	1.31
D fixed	0.182	0.658	0.379	0.734	0.805	0.726	0.861	0.82	0.983
E fixed	0.181	0.553	0.325	0.487	0.423	0.544	0.672	0.913	0.714
F fixed	0.947	0.616	0.674	0.705	0.809	1.41	0.966	0.943	0.879
G fixed	0.648	1	0.812	1.2	1.65	1.07	1.23	1.08	1.27
H fixed	0.927	1.13	1.03	1.11	1.35	1.21	1.3	1.14	1.11
I fixed	1.72	0.567	0.575	0.689	0.42	0.804	0.7	0.744	0.807
K fixed	0.896	2.26	2.37	2.03	1.27	0.792	1.16	1.1	1.18
L fixed	2.32	0.728	0.734	0.785	0.941	0.776	0.809	0.808	0.752
M fixed	2.15	0.827	0.681	0.766	1.15	0.907	0.923	1.04	0.841
N fixed	0.688	0.905	0.823	0.956	1.17	0.952	1.09	0.929	0.843
P fixed	0.32	1.02	0.976	1.18	0.742	0.749	0.982	1	1.22
Q fixed	0.645	1.06	0.957	1.06	0.976	0.821	0.979	0.989	0.936
R fixed	0.851	2.49	3.56	1.97	1.41	0.934	1.18	1.16	1.13
V fixed	1.2	0.694	0.653	0.775	0.587	0.852	0.583	0.894	0.909
W fixed	1.6	0.756	0.871	0.823	0.892	1.42	1.27	1.28	1.09
Y fixed	1.02	0.806	0.746	0.669	1.28	1.94	1.22	1.13	1.04
pThr fixed	0.465	0.462	0.606	0.607	0.373	0.608	0.839	0.961	0.998
pTyr fixed	0.306	0.401	0.444	0.434	0.717	0.685	1.01	0.868	0.837

MAPKAPK2, construct: Full length (from UniProt P49137)
relative phosphorylation
Settings	at +1	at +2	at +3	at +4	at -1	at -2	at -3	at -4	at -5
A fixed	0.699	0.907	0.885	0.974	0.808	1.19	0.604	1.22	0.754
D fixed	0.716	1.92	2.48	1.79	1.12	0.349	0.262	0.669	0.268
E fixed	1.27	1.5	2.42	1.7	0.802	0.749	0.302	1.17	0.22
F fixed	0.729	0.59	0.436	0.561	0.69	0.568	0.212	0.659	1.39
G fixed	0.752	1.47	1.58	1.39	0.733	1.14	0.445	0.999	0.366
H fixed	1.52	1.18	1.1	1.01	1.38	0.778	1.08	1.07	0.67
I fixed	0.928	0.688	0.313	0.575	0.664	0.438	0.111	0.696	1.28
K fixed	0.861	0.655	0.784	0.987	1.2	0.693	1.91	1.75	0.51
L fixed	0.728	0.594	0.432	0.579	0.949	1.04	0.171	0.954	1.65
M fixed	1.27	0.616	0.43	0.598	0.994	1.67	0.275	1.23	1.14
N fixed	1.43	1.4	1.07	1.23	1.49	0.846	0.645	0.843	0.345
P fixed	0.206	1.48	1.75	1.84	1.69	0.655	0.889	0.805	1.42
Q fixed	1.47	1.04	1.17	1.07	1.31	3.73	1.03	1.33	0.941
R fixed	1.36	0.726	0.631	0.755	0.778	1.37	7.97	1.61	1.59
V fixed	1.14	0.885	0.501	0.739	0.87	0.615	0.154	0.725	1.1
W fixed	0.801	0.642	0.5	0.646	0.582	0.586	0.636	0.661	2.38
Y fixed	1.12	0.708	0.521	0.564	0.935	0.577	0.296	0.599	0.983
pThr fixed	1.61	1.04	1.11	1.83	0.519	0.372	0.258	0.504	0.365
pTyr fixed	5.15	2.06	1.63	1.61	1.04	0.397	0.218	0.557	0.646

From the supplement of paper PMC9876800
